Data from patent US11932908B2, “Compositions and methods for diagnosis and treatment of epilepsy” (THE REGENTS OF THE UNIVERSITY OF CALIFORNIA, priority 2004, dated 2024).
“Also recorded” adds a separate entry of the source. Where two headings read alike, the source gives them in different places.

What was measured:
C-terminus of Cav2.1 = test: Co-immunoprecipitation assay in HEK cells, Cav2.1 C-terminus; format: binding; conditions: tagged proteins co-expressed in HEK cells
Protocol: (§1) Immunoprecipitation. HEK cells co-transfected with expression constructs were collected 20 hrs post transfection. The cells were washed in PBS, scraped and homogenized in the lysis buffer (10 mM Tris pH 8.0, 150 mM NaCl, 5 mM EDTA) supplemented with protease inhibitors (Complete; Roche). Cellular debris was removed by centrifugation at 12,000×g for 10 min at 4° C. The supernatants were precleared with protein G-Sepharose (Amersham Pharmacia Biotech) for 2 h at 4° C. and then incubated with monoclonal anti-Flag M2-Agarose beads (Sigma) or anti-Myc antibody (Santa Cruz) for 12 hrs at 4° C. Protein G-Sepharose was used for precipitation with anti-Myc antibody. The beads were washed with lysis buffer five times and then eluted either with Flag peptide or SDS sample buffer for immunoblot analyses.
(§2) Western blot analysis. Confluent HEK cells transiently transfected with expression constructs were placed on ice and washed twice with ice-cold PBS. Cells were scraped from the dishes and homogenized in a hypotonic buffer (0.25M sucrose, 10 mM Tris-HCl, 10 mM NaCl, 1 mM EDTA, pH7.5) supplemented with mixture of protease inhibitors (Complete; Roche). The lysate was centrifuged at 3,300 g for 5 min. to remove nuclei and the supernatant was used as total cytosolic protein. […]

[1] = system: mouse hippocampal primary culture neurons
Protocol: Mouse hippocampal neurons primary culture. Hippocampal neurons were isolated from embryonic day 16 mice and plated at 1-2×10^5 cells per well in 24 well plate containing glass coverslips coated with poly-1-lysine and grown in serum-free NEUROBASAL™ media supplemented with B27, 0.5 mM L-glutamine (Invitrogen).
Transfection and immunostaining of mouse hippocampal neurons. […] Cultures were fixed with 4% paraformaldehyde in PBS 16 and 48 hours after transfection, permeabilized with 0.3% Triton X-100, blocked in 3% normal goat serum in PBS, and treated with mouse monoclonal anti-MAP-2 antibody (1:500; Sigma) and Alexa fluor 594 goat anti-mouse IgG antibody (1:1000; Molecular Probes).
TUNEL assay. […] Forty-eight hours after transfection, neuronal apoptosis was detected using DeadEndTM Fluorometric TUNEL System (Promega). Nuclei were visualized with Hoescht 33342 (Molecular Probes). These cells were also stained with anti-Myc antibody (1:200; Cell Signaling) and Alexa fluor 594 goat anti-rabbit IgG antibody (1:1000). All experiments were carried out in duplicate wells and at least repeated three times. Neuron cells were observed on a confocal microscope (OLYMPUS FLUOVIEW) following 48 hours post transfection.
Cell death analyses with EFHC1 mutants. […] Surviving cell numbers were scored by counting GFP fluorescent-positive cells that attached to dishes. At each counting, detached cells (dead cells) were carefully removed by changing culture medium. Morphologies of cells (cell shape, length and number of neurites, shrinkage, etc.) were not considered for the counting. Surviving cell numbers were scored at 24, 36, and 48 hours after transfection. Analyses were repeated twice by using two independently prepared expression construct DNAs. In total, neurons in seven wells of 24 well plates were counted for each transfection and time point. Experiments were performed in a blinded fashion.

R-type VDCC (Cav2.3) = target: T1, R-type VDCC (Cav2.3) (Oryctolagus cuniculus, UniProt Q02343); test: Patch-clamp analyses of BHK cells stably expressing Cav2.3 transfected with EFHC1 constructs; format: cell-based; conditions: whole cell patch-clamp, 24-48 hr after transfection
T1 construct: expressed in transfected cells; host or cells: BHK (BII-104-2) cells
Protocol: Electrophysiological analysis. A baby hamster kidney (BHK) cell line BHK (BII-104-2) stably transfected with the ociE (BII), α2/δ and β1a subunits, were cultured in DMEM medium containing 10% fetal bovine serum (FBS), 30 U/mL penicillin and 30 μg/mL streptomycin. To transiently express wild type or mutant EFHC1, BHK (BII-104-2) cells were transfected with the pEGFP-C2 plasmids (Clonetech) containing EGFP fused with cDNA for EFHC1 or its mutants using SuperFect Transfection Reagent (QIAGEN). For control experiments, EGFP was transiently expressed by transfecting BHK (BII-104-2) with the same amount of pEGFP without the EFHC1 inserts. Cells were trypsinized, diluted with the DMEM medium, and plated onto glass coverslips 18 hrs after transfection. Ca^2+ currents were recorded 24-48 hr after transfection from GFP-positive cells. Currents from BHK (BII-104-2) cells were recorded at room temperature (22-25° C.) using patch-clamp techniques of whole cell mode with an EPC-9 amplifier (HEKA, Germany). Patch pipettes were made from borosilicate glass capillaries (1.5 mm outer diameter and 0.87 mm inner diameter; Hilgenberg) by using a model P-97 Flaming-Brown micropipette puller (Sutter Instrument Co., CA). Pipette resistance ranged from 2 to 3 MΩ when filled with the pipette solutions described below. The series resistance was electronically compensated to >70% and both the leakage and the remaining capacitance were subtracted by −P/6 method. Currents were sampled at 100 kHz in activation kinetics, otherwise sampled at 50 kHz and filtered at 10 kHz. Calcium currents were recorded in an external solution that contained (in mM): 3 CaCl2, 148 tetraethylammonium chloride (TEA-C1), 10 glucose, and 10 HEPES, pH adjusted to 7.4 with Tris-OH. The pipette solution contained (in mM): 85 Cs-aspartate, 40 CsCl, 4 MgCl2, 5 EGTA, 2 ATP2Na, 5 HEPES, and 8 creatine-phosphate, pH adjusted to 7.4 with CsOH. To determine voltage-dependence of activation, amplitude of tail currents at −50 mV after 5 ms test pulse (−40 to 90 mV) was normalized to the maximal tail current amplitude. […]

Bid = test: Co-expression with DsRed-Bid vector (marker for caspase activation); format: cell-based; conditions: fetal mouse primary hippocampal neuron
Excerpt: Clarifying the exact stage or stages of apoptosis thru which myoclonin/EFHC1 acts and by what stage JME mutations reverse apoptosis is important for development of a curative treatment. Typically, apoptotic stimuli, through a Bcl-2 family mediated checkpoint, cause redistribution of cytochrome-c from mitochondria to cytosol. Cytosolic cytochrome-c binds to APAF-1 in the presence of dATP or ATP, result in recruitment and activation of caspase 9 and subsequent cleavage of caspase 3. Caspase 3 ultimately produces extensive DNA fragmentation. […] After establishing Bid activation, the next step is to establish that myoclonin acting through Bid, cause mitochondrial cytochrome C release and then caspase 3 activation. After establishing this step, studies will ask whether myoclonin also acts thru the AIF and a caspase 3 independent cell death mechanisms.

C-terminus of Cav2.3 = test: Co-immunoprecipitation assay in HEK cells, Cav2.3 C-terminus; format: binding; conditions: tagged proteins co-expressed in HEK cells; listed as WT
Protocol: as §1, §2

C-terminus of Cav2.2 = test: Co-immunoprecipitation assay in HEK cells, Cav2.2 C-terminus; format: binding; conditions: tagged proteins co-expressed in HEK cells
Protocol: as §1, §2

PQ type VDCC (Cav2.1) = target: T2, PQ type VDCC (Cav2.1) (Oryctolagus cuniculus, UniProt P27884); test: Patch-clamp analyses of HEK cell line with P/Q type VDCCs and wild type EFHC1 or mutant constructs; format: cell-based
T2 construct: expressed in transfected cells; host or cells: HEK cell line

T1 sequence (Q02343 whole entry): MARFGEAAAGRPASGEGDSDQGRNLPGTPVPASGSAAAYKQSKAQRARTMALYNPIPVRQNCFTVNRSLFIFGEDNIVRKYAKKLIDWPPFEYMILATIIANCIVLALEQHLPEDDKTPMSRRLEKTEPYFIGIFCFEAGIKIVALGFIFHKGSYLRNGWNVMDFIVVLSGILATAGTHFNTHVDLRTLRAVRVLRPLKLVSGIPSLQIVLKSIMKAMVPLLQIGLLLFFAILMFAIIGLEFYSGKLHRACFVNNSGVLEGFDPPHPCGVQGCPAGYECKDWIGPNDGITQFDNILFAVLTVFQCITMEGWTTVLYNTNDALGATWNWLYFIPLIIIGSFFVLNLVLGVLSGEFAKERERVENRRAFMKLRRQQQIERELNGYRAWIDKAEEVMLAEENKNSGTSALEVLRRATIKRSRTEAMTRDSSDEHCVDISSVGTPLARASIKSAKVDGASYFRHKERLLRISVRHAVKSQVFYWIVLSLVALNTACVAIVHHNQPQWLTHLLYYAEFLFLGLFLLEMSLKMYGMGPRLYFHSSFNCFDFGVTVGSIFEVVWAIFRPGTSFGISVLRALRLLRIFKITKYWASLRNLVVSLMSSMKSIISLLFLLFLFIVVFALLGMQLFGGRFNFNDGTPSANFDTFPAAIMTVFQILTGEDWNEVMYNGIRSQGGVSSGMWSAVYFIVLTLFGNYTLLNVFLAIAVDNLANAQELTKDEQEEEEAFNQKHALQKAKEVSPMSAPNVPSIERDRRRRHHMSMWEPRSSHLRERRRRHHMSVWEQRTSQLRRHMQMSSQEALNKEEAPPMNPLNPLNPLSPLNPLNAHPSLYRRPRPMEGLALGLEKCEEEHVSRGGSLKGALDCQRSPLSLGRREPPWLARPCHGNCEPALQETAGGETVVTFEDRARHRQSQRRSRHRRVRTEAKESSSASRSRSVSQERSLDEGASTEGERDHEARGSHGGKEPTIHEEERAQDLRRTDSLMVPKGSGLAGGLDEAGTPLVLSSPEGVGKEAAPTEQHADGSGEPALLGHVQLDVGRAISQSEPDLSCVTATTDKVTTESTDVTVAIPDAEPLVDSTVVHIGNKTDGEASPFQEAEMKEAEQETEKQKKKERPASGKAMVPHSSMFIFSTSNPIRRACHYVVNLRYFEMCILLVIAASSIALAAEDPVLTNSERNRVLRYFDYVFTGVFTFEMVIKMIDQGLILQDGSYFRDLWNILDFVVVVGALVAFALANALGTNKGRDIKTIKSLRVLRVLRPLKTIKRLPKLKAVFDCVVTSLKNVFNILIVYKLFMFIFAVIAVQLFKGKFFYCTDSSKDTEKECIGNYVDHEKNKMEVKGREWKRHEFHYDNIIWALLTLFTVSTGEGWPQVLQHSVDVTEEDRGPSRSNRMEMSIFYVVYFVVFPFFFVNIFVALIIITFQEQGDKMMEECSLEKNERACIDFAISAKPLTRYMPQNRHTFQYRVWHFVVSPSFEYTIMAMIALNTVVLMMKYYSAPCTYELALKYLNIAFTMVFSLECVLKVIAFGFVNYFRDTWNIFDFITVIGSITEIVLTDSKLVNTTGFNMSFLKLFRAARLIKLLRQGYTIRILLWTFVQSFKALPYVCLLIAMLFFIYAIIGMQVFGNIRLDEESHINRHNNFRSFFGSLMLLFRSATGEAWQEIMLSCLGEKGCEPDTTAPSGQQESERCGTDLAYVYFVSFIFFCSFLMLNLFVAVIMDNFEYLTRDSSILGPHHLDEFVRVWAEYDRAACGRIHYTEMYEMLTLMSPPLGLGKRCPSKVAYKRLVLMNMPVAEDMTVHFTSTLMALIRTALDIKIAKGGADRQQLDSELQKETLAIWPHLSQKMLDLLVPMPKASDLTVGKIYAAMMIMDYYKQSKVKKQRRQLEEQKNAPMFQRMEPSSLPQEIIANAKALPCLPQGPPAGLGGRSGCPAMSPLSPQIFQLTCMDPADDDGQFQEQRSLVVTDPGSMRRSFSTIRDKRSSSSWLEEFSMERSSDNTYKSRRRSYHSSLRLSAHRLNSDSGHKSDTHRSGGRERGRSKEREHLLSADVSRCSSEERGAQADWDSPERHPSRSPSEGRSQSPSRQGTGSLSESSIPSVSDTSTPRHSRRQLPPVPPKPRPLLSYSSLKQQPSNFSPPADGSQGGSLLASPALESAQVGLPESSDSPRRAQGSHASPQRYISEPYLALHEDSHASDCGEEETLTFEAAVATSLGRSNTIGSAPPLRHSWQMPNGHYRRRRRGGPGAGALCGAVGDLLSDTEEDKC
T1 sequence (P13806 27-1106 partner): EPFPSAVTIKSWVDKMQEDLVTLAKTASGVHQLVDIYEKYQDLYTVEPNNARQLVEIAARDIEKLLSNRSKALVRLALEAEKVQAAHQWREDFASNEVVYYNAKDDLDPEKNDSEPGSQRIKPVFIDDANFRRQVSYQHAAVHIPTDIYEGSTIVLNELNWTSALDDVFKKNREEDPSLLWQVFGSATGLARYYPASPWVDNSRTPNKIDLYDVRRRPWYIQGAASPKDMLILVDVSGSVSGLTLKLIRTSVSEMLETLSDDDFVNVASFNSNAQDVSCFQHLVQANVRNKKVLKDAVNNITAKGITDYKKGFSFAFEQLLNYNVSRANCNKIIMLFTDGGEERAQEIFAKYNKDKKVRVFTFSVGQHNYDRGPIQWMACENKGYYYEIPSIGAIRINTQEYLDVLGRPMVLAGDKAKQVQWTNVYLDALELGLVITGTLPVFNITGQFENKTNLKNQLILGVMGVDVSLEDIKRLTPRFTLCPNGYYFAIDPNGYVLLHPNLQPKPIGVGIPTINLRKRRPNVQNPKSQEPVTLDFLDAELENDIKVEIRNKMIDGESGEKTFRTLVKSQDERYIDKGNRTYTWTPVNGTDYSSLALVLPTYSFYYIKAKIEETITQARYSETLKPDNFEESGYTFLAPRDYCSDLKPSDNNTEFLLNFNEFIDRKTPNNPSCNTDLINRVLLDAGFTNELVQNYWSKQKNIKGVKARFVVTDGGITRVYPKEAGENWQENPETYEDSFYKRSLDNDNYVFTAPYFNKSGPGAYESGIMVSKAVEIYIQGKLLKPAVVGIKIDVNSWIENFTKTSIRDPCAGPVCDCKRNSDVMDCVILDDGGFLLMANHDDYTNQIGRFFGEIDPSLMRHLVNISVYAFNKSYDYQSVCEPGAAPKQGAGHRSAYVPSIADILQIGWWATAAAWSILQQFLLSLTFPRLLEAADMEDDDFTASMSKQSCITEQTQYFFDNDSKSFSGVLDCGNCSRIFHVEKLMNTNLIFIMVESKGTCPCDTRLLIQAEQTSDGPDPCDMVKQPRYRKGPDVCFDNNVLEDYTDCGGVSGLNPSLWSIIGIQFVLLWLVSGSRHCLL
T1 sequence (P19517 whole entry partner): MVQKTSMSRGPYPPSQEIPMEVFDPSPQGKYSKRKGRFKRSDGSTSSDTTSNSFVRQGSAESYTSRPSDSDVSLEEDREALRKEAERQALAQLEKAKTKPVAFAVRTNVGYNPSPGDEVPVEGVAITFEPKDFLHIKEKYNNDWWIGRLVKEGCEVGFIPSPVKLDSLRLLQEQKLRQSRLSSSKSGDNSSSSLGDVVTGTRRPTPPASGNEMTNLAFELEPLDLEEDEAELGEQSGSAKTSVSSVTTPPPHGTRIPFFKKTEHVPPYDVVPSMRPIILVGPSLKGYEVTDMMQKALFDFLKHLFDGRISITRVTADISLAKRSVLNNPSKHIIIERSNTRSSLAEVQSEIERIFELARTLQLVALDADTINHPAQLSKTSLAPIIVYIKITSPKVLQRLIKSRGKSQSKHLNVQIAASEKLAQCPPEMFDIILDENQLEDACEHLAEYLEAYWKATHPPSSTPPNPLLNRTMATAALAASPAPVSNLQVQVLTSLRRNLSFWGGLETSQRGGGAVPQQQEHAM

B1: EFHC1: myoclonin 1, a 640 amino acid protein with an EF-hand motif encoded by EFHC1 transcript A (SEQ ID NO: 4) (protein, listed as Homo sapiens)
chain: MVSNPVHGLPFLPGTSFKDSTKTAFHRSQTLSYRNGYAIVRRPTVGIGGDRLQFNQLSQAELDELASKAPVLTYGQPKQAPPADFIPAHVAFDKKVLKFDAYFQEDVPMSTEEQYRIRQVNIYYYLEDDSMSVIEPVVENSGILQGKLIKRQRLAKNDRGDHYHWKDLNRGINITIYGKTFRVVDCDQFTQVFLESQGIELNPPEKMALDPYTELRKQPLRKYVTPSDFDQLKQFLTFDKQVLRFYAIWDDTDSMYGECRTYIIHYYLMDDTVEIREVHERNDGRDPFPLLMNRQRVPKVLVENAKNFPQCVLEISDQEVLEWYTAKDFIVGKSLTILGRTFFIYDCDPFTRRYYKEKFGITDLPRIDVSKREPPPVKQELPPYNGFGLVEDSAQNCFTLIPKAPKKDVIKMLVNDNKVLRYLAVLESPIPEDKDRRFVFSYFLATDMISIFEPPVRNSGIIGGKYLGRTKVVKPYSTVDNPVYYGPSDFFIGAVIEVFGHRFIILDTDEYVLKYMESNAAQYSPEALASIQNHVRKREAPAPEAESKQTEKDPGVQELEALIDTIQKQLKDHSCKDNIREAFQIYDKEASGYVDRDMFFKICESLNVPVDDSLVKELIRMCSHGEGKINYYNFVRAFSN
co-immunoprecipitation with Cav2.1 C-terminus (C-terminus of Cav2.1): did not
neuronal morphology ([1]; 16 hours post-transfection): shorter neurites and lesser branches; also recorded: shorter neurites and fewer branches
neuronal morphology ([1]; 16 hours post-transfection, listed as GFP-EFHC1): shorter neurites and less branches
apoptosis (TUNEL) on EFHC1 overexpression ([1]; 48 hours after transfection): induced apoptosis; also recorded: overlap with TUNEL positive cells
neuronal morphology ([1]; 48 hours post-transfection): signs of neurodegeneration and cell death; also recorded: neurodegeneratve morphologies
neuronal morphology ([1]; 48 hours post-transfection, listed as GFP-EFHC1): signs of neurodegeneration and cell death
R-type Ca2+ current generated by Cav2.3 (R-type VDCC (Cav2.3)): specifically increased; also recorded: significantly increased
R-type Ca2+ current generated by Cav2.3 (R-type VDCC (Cav2.3); listed as WT EFHC1): significantly up-regulates
Bid activation (Bid): activated Bid in a number of EFHC1-expressing neurons
co-immunoprecipitation with Cav2.3 C-terminus (C-terminus of Cav2.3): co-immunoprecipitated
co-immunoprecipitation with Cav2.2 C-terminus (C-terminus of Cav2.2): did not
Ca2+ current density of P/Q-type VDCC (Cav2.1) (PQ type VDCC (Cav2.1); cells co-transfected with P/Q-type VDCC and EFHC1 constructs): did not show such increase; also recorded: did not significantly affect
Activation V0.5 (mV) (PQ type VDCC (Cav2.1); half-maximal voltage of activation, mean ± SEM): 23.9 ± 1.0 mV
Inactivation V0.5 (mV) (PQ type VDCC (Cav2.1); half-maximal voltage of inactivation, mean ± SEM): −8.0 ± 0.8 mV
inactivation speed of P/Q type VDCC (decelerating effect on calcium inactivation) (PQ type VDCC (Cav2.1); patch-clamp): significantly decelerated
voltage dependence of activation (PQ type VDCC (Cav2.1); patch-clamp): did not significantly affect
voltage dependence of inactivation (PQ type VDCC (Cav2.1); patch-clamp): toward positive potentials
Activation k (mV) (PQ type VDCC (Cav2.1); slope factor, mean ± SEM): 8.63 ± 0.35 mV
Inactivation K (mV) (PQ type VDCC (Cav2.1); slope factor, mean ± SEM): 6.73 ± 0.15 mV
